Results: article PMC4726246

Legend:
[1] = TEVC, co-expression in Xenopus oocytes, +40 mV; conditions: glycan lost; control: TASK-3 WT alone
[2] = ratio of TEVC current to surface expression; conditions: glycan lost; control: wild type

Protein | other: current of co-expressed TASK-3 [1] | other: conductivity (current / surface expression ratio) [2]
TASK-1: N53A (protein) parent chain: MKRQNVRTLALIVCTFTYLLVGAAVFDALESEPELIERQRLELRQQELRARYNLSQGGYEELERVVLRLKPHKAGVQWRFAGSFYFAITVITTIGYGHAAPSTDGGKVFCMFYALLGIPLTLVMFQSLGERINTLVRYLLHRAKKGLGMRRADVSMANMVLIGFFSCISTLCIGAAAFSHYEHWTFFQAYYYCFITLTTIGFGDYVALQKDQALQTQPQYVAFSFVYILTGLTVIGAFLNLVVLRFMTMNAEDEKRDAEHRALLTRNGQAGGGGGGGSAHTTDTASSTAAAGGGGFRNVYAEVLHFQSMCSCLWYKSREKLQYSIPMIIPRDLSTSDTCVEQSHSSPGGGGRYSDTPSRRCLCSGAPRSAISSVSTGLHSLSTFRGLMKRRSSV | no change | no change
TASK-1: S55A (protein) parent chain: MKRQNVRTLALIVCTFTYLLVGAAVFDALESEPELIERQRLELRQQELRARYNLSQGGYEELERVVLRLKPHKAGVQWRFAGSFYFAITVITTIGYGHAAPSTDGGKVFCMFYALLGIPLTLVMFQSLGERINTLVRYLLHRAKKGLGMRRADVSMANMVLIGFFSCISTLCIGAAAFSHYEHWTFFQAYYYCFITLTTIGFGDYVALQKDQALQTQPQYVAFSFVYILTGLTVIGAFLNLVVLRFMTMNAEDEKRDAEHRALLTRNGQAGGGGGGGSAHTTDTASSTAAAGGGGFRNVYAEVLHFQSMCSCLWYKSREKLQYSIPMIIPRDLSTSDTCVEQSHSSPGGGGRYSDTPSRRCLCSGAPRSAISSVSTGLHSLSTFRGLMKRRSSV | – | no change
